What all share (experiment): cell-based or functional assay
For experiment [1], the target named is human glucagon receptor (GCGR) (human, UniProt P47871 26-477).
Experiment [2] deals with human GLP-1 receptor (GLP-1R) (human, UniProt P43220 24-463).
Target sequence in this assay (P43220 24-463): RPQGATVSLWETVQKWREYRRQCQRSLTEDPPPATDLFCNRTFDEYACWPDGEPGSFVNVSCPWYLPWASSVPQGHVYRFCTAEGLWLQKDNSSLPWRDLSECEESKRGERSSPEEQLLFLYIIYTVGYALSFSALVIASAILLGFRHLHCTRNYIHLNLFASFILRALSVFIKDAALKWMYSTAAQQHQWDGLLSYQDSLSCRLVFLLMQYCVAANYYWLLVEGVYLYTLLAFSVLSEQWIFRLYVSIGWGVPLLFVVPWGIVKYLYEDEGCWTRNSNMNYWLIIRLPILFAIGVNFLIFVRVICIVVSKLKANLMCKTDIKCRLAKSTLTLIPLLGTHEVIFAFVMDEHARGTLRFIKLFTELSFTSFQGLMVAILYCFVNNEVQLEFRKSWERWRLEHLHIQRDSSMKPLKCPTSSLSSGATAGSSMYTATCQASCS
Experiment [3] addresses T1, human glucagon receptor (GCGR) (human, UniProt P47871 26-477). The source holds these as a separate data set.
Experiment [4] concerns the target T2, human GLP-1 receptor (GLP-1R) (human, UniProt P43220 24-463). This is another data set of the same source.
T2 sequence (P43220 24-463): as above
For experiment [5], the target named is T1, human glucagon receptor (GCGR). The source holds these as a separate data set.
Experiment [6] addresses T2, human GLP-1 receptor (GLP-1R). This is another data set of the same source.
The target in a further experiment is T3, hGIPR (human, UniProt P48546 22-466, limits assumed).
T3 sequence (looked up): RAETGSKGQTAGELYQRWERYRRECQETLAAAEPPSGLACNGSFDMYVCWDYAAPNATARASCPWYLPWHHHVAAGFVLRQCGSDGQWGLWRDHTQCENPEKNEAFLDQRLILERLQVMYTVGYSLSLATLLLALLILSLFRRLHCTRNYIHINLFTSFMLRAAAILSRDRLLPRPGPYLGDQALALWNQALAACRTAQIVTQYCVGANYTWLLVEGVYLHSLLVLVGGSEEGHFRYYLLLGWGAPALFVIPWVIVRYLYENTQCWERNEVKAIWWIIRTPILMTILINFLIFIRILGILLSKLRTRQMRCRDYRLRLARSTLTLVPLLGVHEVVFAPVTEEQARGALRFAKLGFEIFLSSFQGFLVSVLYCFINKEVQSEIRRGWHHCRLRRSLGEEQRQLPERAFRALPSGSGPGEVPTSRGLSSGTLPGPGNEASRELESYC

Where no end group is shown, it is not given here. [ ]: non-standard residue; d: D form. Aib = CC(C)(N)C(=O)O Some results are limits rather than exact numbers.

B1: Compound A5 (peptide)
peptide: YSHGTFTSDYSKYLDSARAQEFVKWLEDEPSSGAPPPS-NH2
In the case of B1, the “hGCGR pEC50 (cAMP) mean (n = 9): 11 point curve starting at 1 uM” value (from here on “hGCGR pEC50 (cAMP) mean”) in experiment [1] is 11.8 pEC50. The “hGLP1 pEC50 (cAMP) mean (n = 9): 11 point curve starting at 500 uM” value (“hGLP1 pEC50 (cAMP) mean” below) in experiment [2] amounted to 5.8 pEC50.

B2: Compound A6 (peptide)
peptide: WSQGTFTSDYSKYLD[Aib]KRAQEFV[Aib]WLEDEPSSGAPPPS-OH
modifications: N-terminus assumed
SMILES: CC(C)C[C@H](NC(=O)[C@H](Cc1ccc(O)cc1)NC(=O)[C@H](CCCCN)NC(=O)[C@H](CO)NC(=O)[C@H](Cc1ccc(O)cc1)NC(=O)[C@H](CC(=O)O)NC(=O)[C@H](CO)NC(=O)[C@@H](NC(=O)[C@H](Cc1ccccc1)NC(=O)[C@@H](NC(=O)CNC(=O)[C@H](CCC(N)=O)NC(=O)[C@H](CO)NC(=O)[C@@H](N)Cc1c[nH]c2ccccc12)[C@@H](C)O)[C@@H](C)O)C(=O)N[C@@H](CC(=O)O)C(=O)NC(C)(C)C(=O)N[C@@H](CCCCN)C(=O)N[C@@H](CCCNC(=N)N)C(=O)N[C@@H](C)C(=O)N[C@@H](CCC(N)=O)C(=O)N[C@@H](CCC(=O)O)C(=O)N[C@@H](Cc1ccccc1)C(=O)N[C@H](C(=O)NC(C)(C)C(=O)N[C@@H](Cc1c[nH]c2ccccc12)C(=O)N[C@@H](CC(C)C)C(=O)N[C@@H](CCC(=O)O)C(=O)N[C@@H](CC(=O)O)C(=O)N[C@@H](CCC(=O)O)C(=O)N1CCC[C@H]1C(=O)N[C@@H](CO)C(=O)N[C@@H](CO)C(=O)NCC(=O)N[C@@H](C)C(=O)N1CCC[C@H]1C(=O)N1CCC[C@H]1C(=O)N1CCC[C@H]1C(=O)N[C@@H](CO)C(=O)O)C(C)C
For the molecule B2, the “hGCGR pEC50 (cAMP) mean” value in experiment [1] was determined as 11.7 pEC50. Moreover, the “hGLP1 pEC50 (cAMP) mean” value in experiment [2] was 5.3 pEC50.

B3: Compound A3 (peptide)
peptide: YSQGTFTSDYSKYLDAARAQEFVKWLEDEPKSKSPPPS-NH2
On to B3, for which the “hGCGR pEC50 (cAMP) mean” value in experiment [1] is 12.1 pEC50. Further, in experiment [2], the “hGLP1 pEC50 (cAMP) mean” value was found to be 6.7 pEC50.

B4: Compound A1 (peptide)
peptide: YSHGTFTSDYSKYLD[Aib]KYAQEFV[Aib]WLEDEPSSGAPPPS-OH
modifications: N-terminus assumed
SMILES: CC(C)C[C@H](NC(=O)[C@H](Cc1ccc(O)cc1)NC(=O)[C@H](CCCCN)NC(=O)[C@H](CO)NC(=O)[C@H](Cc1ccc(O)cc1)NC(=O)[C@H](CC(=O)O)NC(=O)[C@H](CO)NC(=O)[C@@H](NC(=O)[C@H](Cc1ccccc1)NC(=O)[C@@H](NC(=O)CNC(=O)[C@H](Cc1c[nH]cn1)NC(=O)[C@H](CO)NC(=O)[C@@H](N)Cc1ccc(O)cc1)[C@@H](C)O)[C@@H](C)O)C(=O)N[C@@H](CC(=O)O)C(=O)NC(C)(C)C(=O)N[C@@H](CCCCN)C(=O)N[C@@H](Cc1ccc(O)cc1)C(=O)N[C@@H](C)C(=O)N[C@@H](CCC(N)=O)C(=O)N[C@@H](CCC(=O)O)C(=O)N[C@@H](Cc1ccccc1)C(=O)N[C@H](C(=O)NC(C)(C)C(=O)N[C@@H](Cc1c[nH]c2ccccc12)C(=O)N[C@@H](CC(C)C)C(=O)N[C@@H](CCC(=O)O)C(=O)N[C@@H](CC(=O)O)C(=O)N[C@@H](CCC(=O)O)C(=O)N1CCC[C@H]1C(=O)N[C@@H](CO)C(=O)N[C@@H](CO)C(=O)NCC(=O)N[C@@H](C)C(=O)N1CCC[C@H]1C(=O)N1CCC[C@H]1C(=O)N1CCC[C@H]1C(=O)N[C@@H](CO)C(=O)O)C(C)C
Turning to B4, the “GluR pEC 50” value in experiment [3] was found to be 10.6 pEC50. Moreover, the “GLP-1R pEC 50” value in experiment [4] was less than 6 pEC50. Besides, the “Human in vitro Potency (pEC50), hGCGR” value in experiment [5] amounted to 12.3 pEC50. Also, in experiment [6], the “Human in vitro Potency (pEC50), hGLP-1R” value worked out at 5.2 pEC50. Further, the “Human in vitro Potency (pEC50), hGIPR” value with hGIPR is less than 5 pEC50.

B5: Compound A2 (peptide)
peptide: YSHGTFTSDYSKYLD[Aib]KSAQEFV[Aib]WLEDEPSSGAPPPS-OH
modifications: N-terminus assumed
SMILES: CC(C)C[C@H](NC(=O)[C@H](Cc1ccc(O)cc1)NC(=O)[C@H](CCCCN)NC(=O)[C@H](CO)NC(=O)[C@H](Cc1ccc(O)cc1)NC(=O)[C@H](CC(=O)O)NC(=O)[C@H](CO)NC(=O)[C@@H](NC(=O)[C@H](Cc1ccccc1)NC(=O)[C@@H](NC(=O)CNC(=O)[C@H](Cc1c[nH]cn1)NC(=O)[C@H](CO)NC(=O)[C@@H](N)Cc1ccc(O)cc1)[C@@H](C)O)[C@@H](C)O)C(=O)N[C@@H](CC(=O)O)C(=O)NC(C)(C)C(=O)N[C@@H](CCCCN)C(=O)N[C@@H](CO)C(=O)N[C@@H](C)C(=O)N[C@@H](CCC(N)=O)C(=O)N[C@@H](CCC(=O)O)C(=O)N[C@@H](Cc1ccccc1)C(=O)N[C@H](C(=O)NC(C)(C)C(=O)N[C@@H](Cc1c[nH]c2ccccc12)C(=O)N[C@@H](CC(C)C)C(=O)N[C@@H](CCC(=O)O)C(=O)N[C@@H](CC(=O)O)C(=O)N[C@@H](CCC(=O)O)C(=O)N1CCC[C@H]1C(=O)N[C@@H](CO)C(=O)N[C@@H](CO)C(=O)NCC(=O)N[C@@H](C)C(=O)N1CCC[C@H]1C(=O)N1CCC[C@H]1C(=O)N1CCC[C@H]1C(=O)N[C@@H](CO)C(=O)O)C(C)C
Consider B5, for which the “hGCGR pEC50 (cAMP) mean” value in experiment [1] stood at 11.7 pEC50. Moreover, in experiment [2], the “hGLP1 pEC50 (cAMP) mean” value was 5.4 pEC50.

B6: Compound A4 (peptide)
peptide: YSHGTFTSDYSKYLD[Aib]KRAQEFVIWLEDEPSSGAPPPS-OH
modifications: N-terminus assumed
SMILES: CC[C@H](C)[C@H](NC(=O)[C@@H](NC(=O)[C@H](Cc1ccccc1)NC(=O)[C@H](CCC(=O)O)NC(=O)[C@H](CCC(N)=O)NC(=O)[C@H](C)NC(=O)[C@H](CCCNC(=N)N)NC(=O)[C@H](CCCCN)NC(=O)C(C)(C)NC(=O)[C@H](CC(=O)O)NC(=O)[C@H](CC(C)C)NC(=O)[C@H](Cc1ccc(O)cc1)NC(=O)[C@H](CCCCN)NC(=O)[C@H](CO)NC(=O)[C@H](Cc1ccc(O)cc1)NC(=O)[C@H](CC(=O)O)NC(=O)[C@H](CO)NC(=O)[C@@H](NC(=O)[C@H](Cc1ccccc1)NC(=O)[C@@H](NC(=O)CNC(=O)[C@H](Cc1c[nH]cn1)NC(=O)[C@H](CO)NC(=O)[C@@H](N)Cc1ccc(O)cc1)[C@@H](C)O)[C@@H](C)O)C(C)C)C(=O)N[C@@H](Cc1c[nH]c2ccccc12)C(=O)N[C@@H](CC(C)C)C(=O)N[C@@H](CCC(=O)O)C(=O)N[C@@H](CC(=O)O)C(=O)N[C@@H](CCC(=O)O)C(=O)N1CCC[C@H]1C(=O)N[C@@H](CO)C(=O)N[C@@H](CO)C(=O)NCC(=O)N[C@@H](C)C(=O)N1CCC[C@H]1C(=O)N1CCC[C@H]1C(=O)N1CCC[C@H]1C(=O)N[C@@H](CO)C(=O)O
Regarding B6, the “hGCGR pEC50 (cAMP) mean” value in experiment [1] is 11.8 pEC50. Further, in experiment [2], the “hGLP1 pEC50 (cAMP) mean” value was less than 5 pEC50.

B7: Compound A1 (peptide)
peptide: YSHGTFTSDYSKYLD[Aib]KYAQEFV[Aib]WLEDEPSSGAPPPS-OH
modifications: N-terminus assumed
SMILES: CC(C)C[C@H](NC(=O)[C@H](Cc1ccc(O)cc1)NC(=O)[C@H](CCCCN)NC(=O)[C@H](CO)NC(=O)[C@H](Cc1ccc(O)cc1)NC(=O)[C@H](CC(=O)O)NC(=O)[C@H](CO)NC(=O)[C@@H](NC(=O)[C@H](Cc1ccccc1)NC(=O)[C@@H](NC(=O)CNC(=O)[C@H](Cc1c[nH]cn1)NC(=O)[C@H](CO)NC(=O)[C@@H](N)Cc1ccc(O)cc1)[C@@H](C)O)[C@@H](C)O)C(=O)N[C@@H](CC(=O)O)C(=O)NC(C)(C)C(=O)N[C@@H](CCCCN)C(=O)N[C@@H](Cc1ccc(O)cc1)C(=O)N[C@@H](C)C(=O)N[C@@H](CCC(N)=O)C(=O)N[C@@H](CCC(=O)O)C(=O)N[C@@H](Cc1ccccc1)C(=O)N[C@H](C(=O)NC(C)(C)C(=O)N[C@@H](Cc1c[nH]c2ccccc12)C(=O)N[C@@H](CC(C)C)C(=O)N[C@@H](CCC(=O)O)C(=O)N[C@@H](CC(=O)O)C(=O)N[C@@H](CCC(=O)O)C(=O)N1CCC[C@H]1C(=O)N[C@@H](CO)C(=O)N[C@@H](CO)C(=O)NCC(=O)N[C@@H](C)C(=O)N1CCC[C@H]1C(=O)N1CCC[C@H]1C(=O)N1CCC[C@H]1C(=O)N[C@@H](CO)C(=O)O)C(C)C
Consider B7, for which the “hGCGR pEC50 (cAMP) mean” value in experiment [1] is 12.3 pEC50. In addition, the “hGLP1 pEC50 (cAMP) mean” value in experiment [2] amounted to 5.2 pEC50.
